# Data published in patent US20260242478A1 (published 2026).
# Where no end group is shown, it is not given here.
# How the values were obtained:
# [1] = biological target: T1, Anti-CD28 Fab (SEQ ID NOs: 696, 697); test: phage binding ELISA; clonal phage on plate-captured biotinylated anti-CD28 Fab
# T1 construct: In the phage ELISA the Fab was biotinylated and captured on neutravidin coated plates
# T1 sequence (VH, as listed by the source, chain 1 of 2): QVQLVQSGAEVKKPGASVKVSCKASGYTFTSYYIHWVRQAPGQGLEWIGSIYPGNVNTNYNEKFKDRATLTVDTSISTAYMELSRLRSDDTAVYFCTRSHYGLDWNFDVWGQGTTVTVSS
# T1 sequence (VL, as listed by the source, chain 2 of 2): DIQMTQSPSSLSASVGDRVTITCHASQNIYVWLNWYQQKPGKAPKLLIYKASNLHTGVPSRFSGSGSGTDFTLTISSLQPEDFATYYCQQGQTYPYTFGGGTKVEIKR
# Experimental: (§1) Clonal phage were harvested as crude supematants and screened via standard ELISAs. […] Prior to the addition of clonal phage, wells were incubated with blocking buffer and CD28 antigen or blocking buffer alone. Without washing or aspirating, clonal phage supematants were then added to the wells and incubated for a short time. Wells were then washed followed by detection of bound phage using a horse radish conjugated anti-M13 antibody.
# [2] = biological target: T1, Anti-CD28 Fab (SEQ ID NOs: 696, 697); test: phage binding ELISA; clonal phage on plate-captured anti-CD28 Fab pre-incubated with CD28 antigen (competitor)
# Experimental: (§2) Clonal phage were harvested as crude supematants and screened via standard ELISAs. […] Prior to the addition of clonal phage, wells were incubated with blocking buffer and CD28 antigen or blocking buffer alone. Without washing or aspirating, clonal phage supematants were then added to the wells and incubated for a short time. Wells were then washed followed by detection of bound phage using a horse radish conjugated anti-M13 antibody. Clonal phage of interest were then sent for sequence analysis.
# [3] = biological target: Anti-CD28 Fab (SEQ ID NOs: 696, 697); test: phage binding ELISA; Fab-coated wells pre-incubated with CD28 antigen as competitor, anti-M13 HRP detection;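 further: crude clonal phage supernatants added without washing after the CD28 pre-incubation, with wells given blocking buffer only (no CD28) as the reference, bound phage read after washing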
# Target sequence in this assay (VH, as listed by the source, chain 1 of 2): as the sequence (VH, as listed by the source, chain 1 of 2) above
# Target sequence in this assay (VL, as listed by the source, chain 2 of 2): as the sequence (VL, as listed by the source, chain 2 of 2) above
# Experimental: as §2
# [4] = biological target: Anti-CD28 Fab (SEQ ID NOs: 696, 697); test: phage binding ELISA; biotinylated anti-CD28 Fab on neutravidin plate, clonal phage supernatant, anti-M13 HRP detection;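 further: wells pretreated with blocking buffer, either plus or minus CD28 antigen, then given crude phage supernatant briefly without washing in between, then washed before anti-M13 HRP readout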
# Target sequence in this assay (VH, as listed by the source, chain 1 of 2): as the sequence (VH, as listed by the source, chain 1 of 2) above
# Target sequence in this assay (VL, as listed by the source, chain 2 of 2): as the sequence (VL, as listed by the source, chain 2 of 2) above
# Experimental: as §1
# [5] = biological target: Anti-CD28 Fab (SEQ ID NOs: 696, 697); test: phage binding ELISA; anti-CD28 Fab on plate pre-incubated with CD28 antigen as competitor
# Target sequence in this assay (VH, as listed by the source, chain 1 of 2): as the sequence (VH, as listed by the source, chain 1 of 2) above
# Target sequence in this assay (VL, as listed by the source, chain 2 of 2): as the sequence (VL, as listed by the source, chain 2 of 2) above
# Experimental: as §1
# [6] = biological target: Anti-CD28 Fab (SEQ ID NOs: 696, 697); test: phage binding ELISA; biotinylated anti-CD28 Fab on neutravidin plate, clonal phage detected with anti-M13 HRP
# Target sequence in this assay (VH, as listed by the source, chain 1 of 2): as the sequence (VH, as listed by the source, chain 1 of 2) above
# Target sequence in this assay (VL, as listed by the source, chain 2 of 2): as the sequence (VL, as listed by the source, chain 2 of 2) above
# Experimental: as §1
binder,measurement,setting,value
HCAAGAHYPWPACL [Phage-1415 (Peptide-92 library clone)],"Anti-CD28 Fab (SEQ ID NOs: 696, 697) signal",[1],2
same,Anti-CD28 Fab signal in the presence of CD28,[2],0.12
QCSAGAAWPWPFCL [Phage-1423],Anti-CD28 Fab signal in the presence of CD28,[3],0.08
same,"Anti-CD28 Fab (SEQ ID NOs: 696, 697) signal",[4],1.97
"SCAAGASYSWPACF [Phage-1463 peptide (Peptide-92 library, SEQ ID NO: 1759)]",Anti-CD28 Fab signal in the presence of CD28,[5],0.07
same,"Anti-CD28 Fab (SEQ ID NOs: 696, 697) signal",[6],1.79
"TCSAGFSLQLSICL [Phage-1469 peptide (Peptide-92 library, SEQ ID NO: 1765)]",Anti-CD28 Fab signal in the presence of CD28,[5],0.06
same,"Anti-CD28 Fab (SEQ ID NOs: 696, 697) signal",[6],1.77
LCAAGASYPWPTCL [Phage-1414 (Peptide-92 library clone)],"Anti-CD28 Fab (SEQ ID NOs: 696, 697) signal",[1],2
same,Anti-CD28 Fab signal in the presence of CD28,[2],0.1
MCSAGANYPWPWCL [Phage-1426],Anti-CD28 Fab signal in the presence of CD28,[3],0.08
same,"Anti-CD28 Fab (SEQ ID NOs: 696, 697) signal",[4],1.97
TCSAGATYEWPWCM [Phage-1425],Anti-CD28 Fab signal in the presence of CD28,[3],0.07
same,"Anti-CD28 Fab (SEQ ID NOs: 696, 697) signal",[4],1.97
TCAAGATYSWPMCF [Phage-1413 (Peptide-92 library clone)],"Anti-CD28 Fab (SEQ ID NOs: 696, 697) signal",[1],2
same,Anti-CD28 Fab signal in the presence of CD28,[2],0.07
SCAAGATYSWPMCL [Phage-1421],Anti-CD28 Fab signal in the presence of CD28,[3],0.09
same,"Anti-CD28 Fab (SEQ ID NOs: 696, 697) signal",[4],1.99
"SCSAGFHYPWPICL [Phage-1464 peptide (Peptide-92 library, SEQ ID NO: 1760)]",Anti-CD28 Fab signal in the presence of CD28,[5],0.07
same,"Anti-CD28 Fab (SEQ ID NOs: 696, 697) signal",[6],1.79
LCEEFADYPWPMCL [Phage-1412 (Peptide-92 library clone)],"Anti-CD28 Fab (SEQ ID NOs: 696, 697) signal",[1],2.01
same,Anti-CD28 Fab signal in the presence of CD28,[2],0.06
LCAAGFKYPWPLCL [Phage-1411 (Peptide-92 library clone)],"Anti-CD28 Fab (SEQ ID NOs: 696, 697) signal",[1],2.02
same,Anti-CD28 Fab signal in the presence of CD28,[2],0.07
LCAEFFNYPWPLCL [Phage-1422],Anti-CD28 Fab signal in the presence of CD28,[3],0.06
same,"Anti-CD28 Fab (SEQ ID NOs: 696, 697) signal",[4],1.98
"WCAEFFNYHWPLCF [Phage-1468 peptide (Peptide-92 library, SEQ ID NO: 1764)]",Anti-CD28 Fab signal in the presence of CD28,[5],0.06
same,"Anti-CD28 Fab (SEQ ID NOs: 696, 697) signal",[6],1.77
WCAAVFSYTWSPCL [Phage-1428],Anti-CD28 Fab signal in the presence of CD28,[3],0.07
same,"Anti-CD28 Fab (SEQ ID NOs: 696, 697) signal",[4],1.96
TCAAGATYEWPYCF [Phage-1427],Anti-CD28 Fab signal in the presence of CD28,[3],0.06
same,"Anti-CD28 Fab (SEQ ID NOs: 696, 697) signal",[4],1.96
"MCTAGALYNWPTCL [Phage-1466 peptide (Peptide-92 library, SEQ ID NO: 1762)]",Anti-CD28 Fab signal in the presence of CD28,[5],0.09
same,"Anti-CD28 Fab (SEQ ID NOs: 696, 697) signal",[6],1.78
TCAAGAMWHWPVCL [Phage-1409 (Peptide-92 library clone)],"Anti-CD28 Fab (SEQ ID NOs: 696, 697) signal",[1],2.03
same,Anti-CD28 Fab signal in the presence of CD28,[2],0.09
"TCAAGAHYPWPYCL [Phage-1467 peptide (Peptide-92 library, SEQ ID NO: 1763)]",Anti-CD28 Fab signal in the presence of CD28,[5],0.05
same,"Anti-CD28 Fab (SEQ ID NOs: 696, 697) signal",[6],1.77
"SCAAGASYPWPQCL [Phage-1470 peptide (Peptide-92 library, SEQ ID NO: 1766)]",Anti-CD28 Fab signal in the presence of CD28,[5],0.11
same,"Anti-CD28 Fab (SEQ ID NOs: 696, 697) signal",[6],1.77
TCAAGAAYTWPACF [Phage-1429],Anti-CD28 Fab signal in the presence of CD28,[3],0.06
same,"Anti-CD28 Fab (SEQ ID NOs: 696, 697) signal",[4],1.96
MCAAGATYPWPLCL (cysteine pairing not given here; also: fused to phage pIII protein) [Phage-1417],Anti-CD28 Fab signal in the presence of CD28,[3],0.07
same,"Anti-CD28 Fab (SEQ ID NOs: 696, 697) signal",[4],1.99
TCAAGATYSWPWCF [Phage-1418],Anti-CD28 Fab signal in the presence of CD28,[3],0.07
same,"Anti-CD28 Fab (SEQ ID NOs: 696, 697) signal",[4],1.99
TCSAGFHYEWPRCL [Phage-1410 (Peptide-92 library clone)],"Anti-CD28 Fab (SEQ ID NOs: 696, 697) signal",[1],2.02
same,Anti-CD28 Fab signal in the presence of CD28,[2],0.05
"YCSAGAQWPWPICL [Phage-1461 peptide (Peptide-92 library, SEQ ID NO: 1757)]",Anti-CD28 Fab signal in the presence of CD28,[5],0.08
same,"Anti-CD28 Fab (SEQ ID NOs: 696, 697) signal",[6],1.79
TCAAGAHYTWPECF [Phage-1419],Anti-CD28 Fab signal in the presence of CD28,[3],0.07
same,"Anti-CD28 Fab (SEQ ID NOs: 696, 697) signal",[4],1.99
"TCAAGASYQWPLCF [Phage-1462 peptide (Peptide-92 library, SEQ ID NO: 1758)]",Anti-CD28 Fab signal in the presence of CD28,[5],0.07
same,"Anti-CD28 Fab (SEQ ID NOs: 696, 697) signal",[6],1.79
TCAAGANYPWPYCL [Phage-1416 (Peptide-92 library clone)],"Anti-CD28 Fab (SEQ ID NOs: 696, 697) signal",[1],1.99
same,Anti-CD28 Fab signal in the presence of CD28,[2],0.14
MCAAGAHYTWPTCL (cysteine pairing not given here; also: fused to phage pIII protein) [Phage-1424],Anti-CD28 Fab signal in the presence of CD28,[3],0.07
same,"Anti-CD28 Fab (SEQ ID NOs: 696, 697) signal",[4],1.97
SCAAVFSYSWPMCF [Phage-1420],Anti-CD28 Fab signal in the presence of CD28,[3],0.06
same,"Anti-CD28 Fab (SEQ ID NOs: 696, 697) signal",[4],1.99
"LCKPGVPYQWPTCL [Phage-1465 peptide (Peptide-92 library, SEQ ID NO: 1761)]",Anti-CD28 Fab signal in the presence of CD28,[5],0.07
same,"Anti-CD28 Fab (SEQ ID NOs: 696, 697) signal",[6],1.78
TCAAGATYEWPTCL [Phage-1430],Anti-CD28 Fab signal in the presence of CD28,[3],0.08
same,"Anti-CD28 Fab (SEQ ID NOs: 696, 697) signal",[4],1.96
